From EP1207201A1, “NOVEL G PROTEIN-COUPLED RECEPTOR PROTEIN AND DNA THEREOF” (Takeda Chemical Industries, Ltd., priority 1999, dated 2001)
Where no end group is shown, it is not given here.

Biological target: T1, AQ27 (Homo sapiens, UniProt Q96P65)
T1 construct: expressed in transfected cells; host or cells: CHO cells
T1 sequence (Q96P65 1-431): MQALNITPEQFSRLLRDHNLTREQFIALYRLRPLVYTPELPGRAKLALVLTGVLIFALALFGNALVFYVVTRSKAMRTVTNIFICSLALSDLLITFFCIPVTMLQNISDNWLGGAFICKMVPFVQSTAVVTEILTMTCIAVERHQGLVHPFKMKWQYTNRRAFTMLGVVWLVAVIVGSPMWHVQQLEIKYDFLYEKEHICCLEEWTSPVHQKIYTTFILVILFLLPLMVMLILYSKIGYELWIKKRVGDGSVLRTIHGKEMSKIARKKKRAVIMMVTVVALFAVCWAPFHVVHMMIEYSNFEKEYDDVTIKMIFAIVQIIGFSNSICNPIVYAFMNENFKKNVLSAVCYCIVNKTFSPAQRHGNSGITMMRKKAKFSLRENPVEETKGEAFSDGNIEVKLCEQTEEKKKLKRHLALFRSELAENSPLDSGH
Test: Cytosensor cell activation (increase of acidification rate) in AQ27-expressing CHO cells versus mock cells
Format: cell-based
Conditions: 10 µM, exposure 7 minutes and 2 seconds, AQ27-expressing CHO cells compared with mock cells
Method: The vertical axis represents a cycle of measurement. "•" denotes the reactivity of receptor-expressed CHO cells and "○" denotes the reactivity of mock cells.
The AQ27-expressing CHO cells and mock cells were inoculated in a capsule for Cytosensor at a concentration of 2.7 x 10^5 cells/capsule, respectively, incuvated overnight, and mounted onto Cytosensor(Molecular Device). After the acidification rare became stable, the cells were exposed to 10 µM Enkephalin-Arg-Phe amide (Bachem, H-2835) for 7 minutes and 2 seconds. The cell activation was measured using the increasing rate of the acidification rate as index.

Substance: Met-Enkephalin-Arg-Phe amide (YGGFMRF-NH2) [peptide amide purchased from Bachem, H-2835]
- cell activation measured using the increasing rate of the acidification rate as index: specifically activates the AQ27-expressing CHO cells
